These are literature values, as cited in article PMC5413942.

The target in this series is FhuA Ton box peptide Ton box (Escherichia coli) (UniProt P06971).

Sequence of TonB (P02929 whole entry): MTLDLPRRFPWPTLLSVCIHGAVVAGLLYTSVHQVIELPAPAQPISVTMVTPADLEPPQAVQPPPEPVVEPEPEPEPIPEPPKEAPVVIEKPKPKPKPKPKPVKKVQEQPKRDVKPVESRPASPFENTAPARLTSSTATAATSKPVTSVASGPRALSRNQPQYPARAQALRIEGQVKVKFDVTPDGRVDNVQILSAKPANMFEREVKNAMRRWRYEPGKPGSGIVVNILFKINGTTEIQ

Broadly, the Kd is the constant that tells how readily two partners part at equilibrium. For the substance TonB (from UniProt P02929), the dissociation constant (Kd) was 36 µM.
